# Reference: the supplement of paper PMC10567573
# B1: RHOBTB2 (parent)
# chain: LYTGELDENERDLMHIAHIAELLE
# Variants of: B1
# Experiment: protein stability index of a GFP-peptide fusion (GPS, HEK-293T) (PSI 1-6); higher = more stable
# Conditions: c terminus: a fixed tail appended
# 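Further: lentivirally expressed fusions sorted by FACS into six bins by GFP to DsRed ratio, PSI derived from sequencing read proportions per bin multiplied by bin number.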
row,Variant,protein stability index
1,EYTGELDENERDLMHIAHIAELLE [L1E],2.72
2,FYTGELDENERDLMHIAHIAELLE [L1F],3.02
3,GYTGELDENERDLMHIAHIAELLE [L1G],2.53
4,HYTGELDENERDLMHIAHIAELLE [L1H],2.61
5,IYTGELDENERDLMHIAHIAELLE [L1I],2
6,KYTGELDENERDLMHIAHIAELLE [L1K],2.49
7,MYTGELDENERDLMHIAHIAELLE [L1M],2.72
8,NYTGELDENERDLMHIAHIAELLE [L1N],2.8
9,PYTGELDENERDLMHIAHIAELLE [L1P],2.92
10,QYTGELDENERDLMHIAHIAELLE [L1Q],3.08
11,RYTGELDENERDLMHIAHIAELLE [L1R],2.93
12,SYTGELDENERDLMHIAHIAELLE [L1S],2.52
13,TYTGELDENERDLMHIAHIAELLE [L1T],2.1
14,VYTGELDENERDLMHIAHIAELLE [L1V],2.8
15,WYTGELDENERDLMHIAHIAELLE [L1W],2.43
16,YYTGELDENERDLMHIAHIAELLE [L1Y],2.78
17,LATGELDENERDLMHIAHIAELLE [Y2A],2.73
18,LCTGELDENERDLMHIAHIAELLE [Y2C],2.04
19,LDTGELDENERDLMHIAHIAELLE [Y2D],3.68
20,LETGELDENERDLMHIAHIAELLE [Y2E],3.49
21,LFTGELDENERDLMHIAHIAELLE [Y2F],2.78
22,LGTGELDENERDLMHIAHIAELLE [Y2G],3.25
23,LHTGELDENERDLMHIAHIAELLE [Y2H],3.8
24,LITGELDENERDLMHIAHIAELLE [Y2I],2.54

row,Variant,protein stability index
1,LKTGELDENERDLMHIAHIAELLE [Y2K],2.74
2,LLTGELDENERDLMHIAHIAELLE [Y2L],2.37
3,LMTGELDENERDLMHIAHIAELLE [Y2M],2.73
4,LNTGELDENERDLMHIAHIAELLE [Y2N],3.17
5,LPTGELDENERDLMHIAHIAELLE [Y2P],3.2
6,LQTGELDENERDLMHIAHIAELLE [Y2Q],3.01
7,LRTGELDENERDLMHIAHIAELLE [Y2R],3.21
8,LSTGELDENERDLMHIAHIAELLE [Y2S],3.34
9,LTTGELDENERDLMHIAHIAELLE [Y2T],3.44
10,LVTGELDENERDLMHIAHIAELLE [Y2V],3.45
11,LWTGELDENERDLMHIAHIAELLE [Y2W],1.69
12,LYAGELDENERDLMHIAHIAELLE [T3A],2.58
13,LYCGELDENERDLMHIAHIAELLE [T3C],2.31
14,LYDGELDENERDLMHIAHIAELLE [T3D],3
15,LYEGELDENERDLMHIAHIAELLE [T3E],2.98
16,LYFGELDENERDLMHIAHIAELLE [T3F],3.07
17,LYGGELDENERDLMHIAHIAELLE [T3G],1.91
18,LYHGELDENERDLMHIAHIAELLE [T3H],2.08
19,LYIGELDENERDLMHIAHIAELLE [T3I],2.15
20,LYKGELDENERDLMHIAHIAELLE [T3K],2.16
21,LYLGELDENERDLMHIAHIAELLE [T3L],1.94
22,LYMGELDENERDLMHIAHIAELLE [T3M],2.23
23,LYNGELDENERDLMHIAHIAELLE [T3N],2.25
24,LYPGELDENERDLMHIAHIAELLE [T3P],2.14

row,Variant,protein stability index
1,LYQGELDENERDLMHIAHIAELLE [T3Q],2.58
2,LYRGELDENERDLMHIAHIAELLE [T3R],1.98
3,LYSGELDENERDLMHIAHIAELLE [T3S],2.61
4,LYVGELDENERDLMHIAHIAELLE [T3V],2.21
5,LYWGELDENERDLMHIAHIAELLE [T3W],1.54
6,LYYGELDENERDLMHIAHIAELLE [T3Y],2.08
7,LYTAELDENERDLMHIAHIAELLE [G4A],2.31
8,LYTCELDENERDLMHIAHIAELLE [G4C],1.87
9,LYTDELDENERDLMHIAHIAELLE [G4D],2.53
10,LYTEELDENERDLMHIAHIAELLE [G4E],2.32
11,LYTFELDENERDLMHIAHIAELLE [G4F],1.93
12,LYTHELDENERDLMHIAHIAELLE [G4H],1.99
13,LYTIELDENERDLMHIAHIAELLE [G4I],2.56
14,LYTKELDENERDLMHIAHIAELLE [G4K],1.89
15,LYTLELDENERDLMHIAHIAELLE [G4L],1.76
16,LYTMELDENERDLMHIAHIAELLE [G4M],1.77
17,LYTNELDENERDLMHIAHIAELLE [G4N],2.05
18,LYTPELDENERDLMHIAHIAELLE [G4P],2.46
19,LYTQELDENERDLMHIAHIAELLE [G4Q],2.7
20,LYTRELDENERDLMHIAHIAELLE [G4R],2.29
21,LYTSELDENERDLMHIAHIAELLE [G4S],2.42
22,LYTTELDENERDLMHIAHIAELLE [G4T],2.25
23,LYTVELDENERDLMHIAHIAELLE [G4V],1.44
24,LYTWELDENERDLMHIAHIAELLE [G4W],1.5

row,Variant,protein stability index
1,LYTYELDENERDLMHIAHIAELLE [G4Y],2.2
2,LYTGALDENERDLMHIAHIAELLE [E5A],2.12
3,LYTGCLDENERDLMHIAHIAELLE [E5C],1.67
4,LYTGDLDENERDLMHIAHIAELLE [E5D],2.63
5,LYTGFLDENERDLMHIAHIAELLE [E5F],2.71
6,LYTGGLDENERDLMHIAHIAELLE [E5G],2.34
7,LYTGHLDENERDLMHIAHIAELLE [E5H],2.24
8,LYTGILDENERDLMHIAHIAELLE [E5I],1.65
9,LYTGKLDENERDLMHIAHIAELLE [E5K],2.75
10,LYTGLLDENERDLMHIAHIAELLE [E5L],2.02
11,LYTGMLDENERDLMHIAHIAELLE [E5M],2.1
12,LYTGNLDENERDLMHIAHIAELLE [E5N],2.23
13,LYTGPLDENERDLMHIAHIAELLE [E5P],2.52
14,LYTGQLDENERDLMHIAHIAELLE [E5Q],2.22
15,LYTGRLDENERDLMHIAHIAELLE [E5R],3.45
16,LYTGSLDENERDLMHIAHIAELLE [E5S],2.54
17,LYTGTLDENERDLMHIAHIAELLE [E5T],2.75
18,LYTGVLDENERDLMHIAHIAELLE [E5V],1.81
19,LYTGWLDENERDLMHIAHIAELLE [E5W],2.3
20,LYTGYLDENERDLMHIAHIAELLE [E5Y],1.9
21,LYTGEADENERDLMHIAHIAELLE [L6A],3.38
22,LYTGECDENERDLMHIAHIAELLE [L6C],2.91
